Assay results: patent US20260248925A1

Biological target: PTH receptor (PTHR1) (human) (UniProt Q03431)
Assay: cell-based or functional assay

Sequence of UniProt Q03431 (Q03431 27-593): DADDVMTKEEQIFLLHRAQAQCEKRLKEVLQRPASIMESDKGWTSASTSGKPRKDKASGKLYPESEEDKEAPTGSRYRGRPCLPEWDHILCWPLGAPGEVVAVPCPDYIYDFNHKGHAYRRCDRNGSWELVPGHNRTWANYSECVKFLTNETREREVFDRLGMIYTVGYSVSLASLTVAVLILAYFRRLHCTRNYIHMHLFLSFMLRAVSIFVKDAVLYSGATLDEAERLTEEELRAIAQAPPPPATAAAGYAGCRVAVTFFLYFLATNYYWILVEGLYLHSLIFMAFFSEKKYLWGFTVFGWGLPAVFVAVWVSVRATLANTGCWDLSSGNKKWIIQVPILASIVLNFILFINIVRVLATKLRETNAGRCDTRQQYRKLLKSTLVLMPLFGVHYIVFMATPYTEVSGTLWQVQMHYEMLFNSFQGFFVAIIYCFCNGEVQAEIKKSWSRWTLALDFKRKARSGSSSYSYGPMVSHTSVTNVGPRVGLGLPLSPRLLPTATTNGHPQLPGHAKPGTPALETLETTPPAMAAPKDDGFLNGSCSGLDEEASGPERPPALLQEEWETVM

PTH (ligand) was tested, and the EC50 (cAMP, PTH1 cellular assay) was 1.4 nM and the Maximal response was 105%.
